Data published in PMC6444592, “Citrullination of HP1γ chromodomain affects association with chromatin” (Epigenetics & Chromatin, 2019).

Target: H3K9me3(1–16) peptide

HP1γ citrullination by PADI4 in the in vitro citrullination assay with added H3K9me3 peptides (immunoblot with anti-peptidyl-citrulline antibody; fold change against unmethylated H3 peptide): 2 fold
Substance: GST-HP1γWT (recombinant full-length mouse heterochromatin protein 1 gamma, wild type) (from UniProt P23198 1-183) (natural protein)
